{"source": "the nanobody polyreactivity screen of Harvey et al. (2022)"}
{"assay": "yeast display, Sf9 membrane polyspecificity reagent, FACS + sequencing; frameworks hold sequencing errors", "method_in_brief": "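Synthetic nanobody libraries on Saccharomyces cerevisiae BJ5465 were galactose-induced for 36–48 hours, stained 1 hour at 4 °C with 10% biotinylated, detergent-solubilized Sf9 membrane reagent and enriched on streptavidin microbeads. FACS then separated cells into low and high (top ~1%) gates by anti-HA (expression) and streptavidin (reagent binding) fluorescence. Genes were colony-PCR amplified, MiSeq 2 × 250 sequenced and CDR-length filtered. A clone's polyreactivity label is that of its gate of origin.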"}
{"sequence": "QVQLVESGGGLGQAGGSLRLSCAASGSIFAGNAMGWYRQAPRKERELVAAISRRGGSTYYADSVKGRFTISRDNAKNTVYLQMNSLKPEDTAVYYCNALLRYAYHAAYGYWGQGTQVTVSS", "polyreactivity (PSR sort gate)": "high polyreactivity"}
{"sequence": "QVQLVESGGGLGQAGGSLRLSCAASGSIFPAYAMGCYRQAPGKERELVAAITFSGGSTYYADSVKGRFTISRDNAKNTVYLQMNSLKPEDTAVYYCATDSYGWRFNRAITSYGGDYWGQGTQVTVSS", "polyreactivity (PSR sort gate)": "low polyreactivity"}
{"sequence": "QVQLVESGGGLGQAGGSLRLSCAASGSIFPEYVMGWNRQAPGKERELVAAISWSGGSTYYADSVKGRFTISRDNAKNPVFLQMNSLKPEDTAVYYCNRVPSWRIDYDYWGQGTQVTVSS", "polyreactivity (PSR sort gate)": "low polyreactivity"}
{"sequence": "QVQLVESGGGLGQAGGSLRLSCAASGSIIPWNVMGWSRQARGKEREFVAGITFRVGSTYYADSVKGRFTISRDNAKNTVYLQMNSLKPEDTAVYYCAALIRAVDRYTYRYGYWGQGTQVTVSS", "polyreactivity (PSR sort gate)": "high polyreactivity"}
{"sequence": "QVQLVESGGGLGQAGGSLRLSCAASGSTFARNTMGWYRQAPGKERELVAVITRGDSTYYADSVKGRFTISRDNAKNTVNLQMNSLKPEDTAVYYCNAYFRYAYPSKMDYWGQGTQVTVSS", "polyreactivity (PSR sort gate)": "low polyreactivity"}
{"sequence": "QVQLVESGGGLGQAGGSLRLSCAASGSTFPYYAMGWSRPAPGKERELVAVITSSGSRTYYADSVKGRFSMSRDKAKNTVYLQMNSLKPEETAVYYCARDTRYYRPYRSQYDYWGQGTQVTVSS", "polyreactivity (PSR sort gate)": "high polyreactivity"}
{"sequence": "QVQLVESGGGLGQAGGTLRLTCAASGSIFRTYAMGWYRQAPGKERELVAAITWSGGRTYYADSVKGRFTISRDNATNTVYLPMISLKPDDTAVYYCNAVYLAYGGDYWGQGTQVTVSS", "polyreactivity (PSR sort gate)": "high polyreactivity"}
{"sequence": "QVQLVESGGGLIQAGGSLRLSCAASGIIFYPYTMGWYRQAPGKERELVAAIRQSGTSTYYADSVKGRFTISRDNAKNTVYLQMNSLKPEDTAVYYCAAPPYYSYDYWGQGTQVTVSS", "polyreactivity (PSR sort gate)": "low polyreactivity"}
{"sequence": "QVQLVESGGGLLHAGGSLRLSCAASGRIFWFYTMGWYRQAPGKERELVAAISDSAGSTYYADSVKGRFTISRDNAKYTVYVPMNSLKPEDTAVYYCDADGWWQYDYWGHGTQVTVSS", "polyreactivity (PSR sort gate)": "low polyreactivity"}
{"sequence": "QVQLVESGGGLLQAGGRLRLSCAASGSIFPYYAMGWYRQAPGKERALVAAISDSGDSTYYADSVKGRFTMSRDNAKNTVYLQMNSLKPEDTAVYYCAADQTSSYYDPWGDYWGQGTQVTVSS", "polyreactivity (PSR sort gate)": "low polyreactivity"}
{"sequence": "QVQLVESGGGLLQAGGSLRFSCAASGRILAGNAMGWYRQAPGTEREWVAAICSVDSTNYADSVKGRFTISRDNAKNTFYLLMYSLKPEDSAVYYCARVPQYNTYSEFDSWGQGTQVTVSS", "polyreactivity (PSR sort gate)": "low polyreactivity"}
{"sequence": "QVQLVESGGGLLQAGGSLRLSCAASGFIFRTYAMGWYRQAPGKERELVARISWSGGSTYYADSVKGRFTISRDNAKNTVYLQMNSLITEDTAVYYCARLGTLYESIEYDYWGQGTQVTVSS", "polyreactivity (PSR sort gate)": "low polyreactivity"}
{"sequence": "QVQLVESGGGLLQAGGSLRLSCAASGFIFSLYAMGWYRQAPGKERELVASINRRGTSTFYADSVKGRFTISLDNAKKTVYLQMNSMKPEDTAVYYCNAYPVAAIRSTGSYDYWGQGTQVTVSS", "polyreactivity (PSR sort gate)": "low polyreactivity"}
{"sequence": "QVQLVESGGGLLQAGGSLRLSCAASGFTFQYNAMGWYRQAPGKERELVAAISRSGTSTYYADSVKGRFTISRDNAKNTVYLQMNSLKPEDTGVYYCNAYYLSGSVYWTGDIYDYWGQGTQVTVSS", "polyreactivity (PSR sort gate)": "high polyreactivity"}
{"sequence": "QVQLVESGGGLLQAGGSLRLSCAASGFTFSFYARGWYRQAPGKERELVAAISYSGGITYYADSVKGRFTISRDNAKNTVYLQINSLKPEDTAVYYCAAVPGISVGRQPGYDYDYWGHGTQVTVSS", "polyreactivity (PSR sort gate)": "low polyreactivity"}
{"sequence": "QVQLVESGGGLLQAGGSLRLSCAASGFTFYPNAMGWYRQAPGKERELVAAISRSGSSTYYADSVKGRFTISRDNAKNTVYLQMNSLKPEDTAVYYCNRYGRQYDFYYWGQGTQVTVSS", "polyreactivity (PSR sort gate)": "high polyreactivity"}
{"sequence": "QVQLVESGGGLLQAGGSLRLSCAASGFTISYNVMGWYRQAPGKERELVAAITYSGGSTYYADSVKGRFTISRDNAKNTVYLQMNSLKPEDTAVYYCAAENGMPMDYWGQGTQVTVSS", "polyreactivity (PSR sort gate)": "low polyreactivity"}
{"sequence": "QVQLVESGGGLLQAGGSLRLSCAASGIIIYYYAMGWYRQAPGKERELVAAITYRGGSTYADSVKGRFTISRDNAKNTVYLQMNSLKPEDTAVYYCNAVWEEKYQAPGSYDYWGQGTQVTVSS", "polyreactivity (PSR sort gate)": "low polyreactivity"}
{"sequence": "QVQLVESGGGLLQAGGSLRLSCAASGITFTSYVMGWYRQAPGKERELVAAIRWSGGRTYYADSVKGRFTISRDNAKYTVYLQMNSLKPEDTAVYYCNRVTRSHVDYWGQGTQVTVSS", "polyreactivity (PSR sort gate)": "high polyreactivity"}
{"sequence": "QVQLVESGGGLLQAGGSLRLSCAASGRIFAVYAMGWYRQAPGKEREFVAAISYSGGITYYADSVKGRFTISRDNAKNTVYLQMNSLKPEDSAVFYCNSYYYFWGQGTQVTVSS", "polyreactivity (PSR sort gate)": "low polyreactivity"}
{"sequence": "QVQLVESGGGLLQAGGSLRLSCAASGRIFGDYGMGWYRQAPGKERELVAAITDRGGTTYYADSVKGRFTISRDNAKKTVYLQMNSMKPEDNAVYYCNARQSDIFDYDYWGQGTQVTVSS", "polyreactivity (PSR sort gate)": "low polyreactivity"}
{"sequence": "QVQLVESGGGLLQAGGSLRLSCAASGRIFGVYAMGWYRQAPGKEMELVAAISWGGGSTYYADSVKGRFTISRDNAKNTVYLQMISLKPEDTAVFDCAADPPDGFYYTWDYDYWGQGTQVTVSS", "polyreactivity (PSR sort gate)": "low polyreactivity"}
{"sequence": "QVQLVESGGGLLQAGGSLRLSCAASGRIFHYYAMGWYRQAPGKERELVAGIETSGGSTYYADSVNWRFTISRDNAKNTVYLKLNSLKPEDTAVYYCATDQYYSYDYVYWGQGTQVTVSS", "polyreactivity (PSR sort gate)": "low polyreactivity"}
{"sequence": "QVQLVESGGGLLQAGGSLRLSCAASGRIFYSNAMGWYRQAPGKERELVATRTRRGGGTYYADSVKGRFTISRDNAKNSVYLQMNSLKPVDTAVYSCNAYDILPGGNFWYWYGSWGQGTQVTVSS", "polyreactivity (PSR sort gate)": "high polyreactivity"}
{"sequence": "QVQLVESGGGLLQAGGSLRLSCAASGRTFSGYTMGWYRQAPGKERELLATIRDRGGSTYYADSVKGRFTISRDNAKNTVYLQMNSLTPEDSAVYYCAARRGRRYYYWGQGTQVTVSS", "polyreactivity (PSR sort gate)": "high polyreactivity"}
{"sequence": "QVQLVESGGGLLQAGGSLRLSCAASGRTFYSNAMGWYRQAPGKERELVATISSGGSTNYADSVKGRFTISRDNAKNTVYLQMNSLKPEDTAVYYCAKRTHQFGVSRSYNTYYYWGQGTQVTVSS", "polyreactivity (PSR sort gate)": "low polyreactivity"}
{"sequence": "QVQLVESGGGLLQAGGSLRLSCAASGRTFYVYAMGWYRQAPGKEREFVAAIDWGGGTTYYADSVKGRFTISRDNAKNNVYLQMNCLKPEDTAVYYCNAAYTDRFYYWGQGTQVTVSS", "polyreactivity (PSR sort gate)": "high polyreactivity"}
{"sequence": "QVQLVESGGGLLQAGGSLRLSCAASGSIFGYYAMGWYRQAPGKERELVAAISRSGGSTYYADSVKGRFTISRDNAKNTVYLQMNSLKPEDTAVYYCAADDYPYGNYYWGQGTQVTVSS", "polyreactivity (PSR sort gate)": "high polyreactivity"}
{"sequence": "QVQLVESGGGLLQAGGSLRLSCAASGSIFTLYDMGRYRQAPGKERELVAAITSGGSTDYADSVKGRFTISRDYAKNTVFLQMNSLKPEDTAVYYCNAEAYPYWYRGASRDYDYWGQGTQVTVSS", "polyreactivity (PSR sort gate)": "low polyreactivity"}
{"sequence": "QVQLVESGGGLLQAGGSLRLSCAASGSTFPSYAMGWYRQAPGKERELVAAINSGGGTNYADSVKGRFTISRDNAKNNVYLQMNSLKPEDTAVYYCAKSRYDYTKTDGGYWGQGTQVTVSS", "polyreactivity (PSR sort gate)": "low polyreactivity"}
{"sequence": "QVQLVESGGGLLQAGGSLRLSCAASGSTFVYYAMGWYRQAPGKERELVASINSGGSTYYADSVKGRFRISRDNEKNTVYLQMNSLKPEDTAVYYCAATSIPPSVHLQDPTYDYWGQGTQVTVSS", "polyreactivity (PSR sort gate)": "low polyreactivity"}
{"sequence": "QVQLVESGGGLLQAGGSLRLSCAASGSTFYIYSMGCYRQAPGKERELVARISGAGGSTYYSDSVKGRFTISRDNAKNTVYFQMNCLNPEDTAVYYCAAVDIYKYYQYYACPYDSYDYWGQGTQVTVSS", "polyreactivity (PSR sort gate)": "low polyreactivity"}
